For this experiment, the target named is human CD4 on cells (MT-2, MT-4 cells; mouse SR.hCD4 cells transfected with human CD4) (human) (UniProt P01730). The experiment can be described thus: cell-based or functional assay.

These results are taken from patent publication US20040116653A1.

Turning to “synthetic soluble multiple-branched peptide (MBP) corresponding to amino acids 51-74 of CD38 (CD3851-74 MBP)”, the EC50, inhibition of HIV-1IIIB infection of MT-4 cells (p24 ELISA, day 3) was determined as 12 nM and the EC90, inhibition of HIV-1IIIB infection of MT-4 cells (p24 ELISA, day 3) was determined as 75 nM.
